Laboratory results: US20060171941A1
Residue numbers refer to the chain shown, from its start.

Tests used:
[1] = target: tumor-associated glycoprotein-72 on the cell surface of Jurkat cells; assay: flow cytometry, 0.5 ug Ab on Jurkat cells expressing TAG-72
[2] = target: anti-V region antibodies to CC49 in the serum of patient two; assay: SPR competition, soluble competitor Ab against immobilized HuCC49 for patient two serum anti-V region Abs
[3] = target: anti-V region antibodies to CC49 in the serum of patient one; assay: SPR competition, soluble competitor Ab against immobilized HuCC49 for patient one serum anti-V region Abs
[4] = target: anti-V region antibodies to CC49 in the serum of patient one; assay: SPR competition for patient one serum anti-V region Abs
[5] = target: bovine submaxillary mucin (TAG-72 positive) (bovine); assay: competition RIA against 125I-mCC49 on BSM; relative affinity constant, modified Scatchard

B1: HuCC49V10 (antibody, V domains shown)
VH: QVQLVQSGAEVVKPGASVKISCKASGYTFTDHAIHWVKQNPGQRLEWIGYFSPGNDDFKYSQKFQGKATLTADTSASTAYVELSSLRSEDTAVYFCTRSLNMAYWGQGTLVTVSS
VL: DIVMSQSPDSLAVSLGERVTLNCKSSQSVLYSSNSKNYLAWYQQKPGQSPKLLIYWASTRESGVPDRFSGSGSGTDFTLTISSVQAEDVAVYYCQQYYSYPLSFGAGTKLELK
B1 showed a % of gated cells [1] of 25.8%, a mean fluorescence intensity [1] of 62.9 and an IC50 [2] of 7.7 nM. The IC50 [3] was > 1000 nM, the concentration required for 20% inhibition [4] was 80 nM and the percent inhibition at 1000 nM [4] was < 30%. For the same binder, the Ka [5] was 5.9e+07 M⁻¹.

B2: humanized CC49 (CDR-grafted) (antibody, V domains shown)
VH: B1 VH with S61N, Q62E, K63R, Q65K
VL: B1 VL with V29L, S33G, S35Q, T59A, S103T
Work on B2 yielded an IC50 [2] of 2.2 nM, an IC50 [3] of 6 nM and a concentration required for 20% inhibition [4] of 2 nM. It also gave a Ka [5] of 1.16e+08 M⁻¹.
